B1: E3 ubiquitin-protein ligase pellino homolog 2 (Homo sapiens), Q9HAT8 (parent)
chain: MFSPGQEEHCAPNKEPVKYGELVVLGYNGALPNGDRGRRKSRFALYKRPKANGVKPSTVHVISTPQASKAISCKGQHSISYTLSRNQTVVVEYTHDKDTDMFQVGRSTESPIDFVVTDTISGSQNTDEAQITQSTISRFACRIVCDRNEPYTARIFAAGFDSSKNIFLGEKAAKWKNPDGHMDGLTTNGVLVMHPRGGFTEESQPGVWREISVCGDVYTLRETRSAQQRGKLVESETNVLQDGSLIDLCGATLLWRTADGLFHTPTQKHIEALRQEINAARPQCPVGLNTLAFPSINRKEVVEEKQPWAYLSCGHVHGYHNWGHRSDTEANERECPMCRTVGPYVPLWLGCEAGFYVDAGPPTHAFTPCGHVCSEKSAKYWSQIPLPHGTHAFHAACPFCATQLVGEQNCIKLIFQGPID

Variants of: B1
Settings: with irak1_human IRAK1, P51617
Sequence of irak1_human IRAK1, P51617 (P51617 whole entry, looked up): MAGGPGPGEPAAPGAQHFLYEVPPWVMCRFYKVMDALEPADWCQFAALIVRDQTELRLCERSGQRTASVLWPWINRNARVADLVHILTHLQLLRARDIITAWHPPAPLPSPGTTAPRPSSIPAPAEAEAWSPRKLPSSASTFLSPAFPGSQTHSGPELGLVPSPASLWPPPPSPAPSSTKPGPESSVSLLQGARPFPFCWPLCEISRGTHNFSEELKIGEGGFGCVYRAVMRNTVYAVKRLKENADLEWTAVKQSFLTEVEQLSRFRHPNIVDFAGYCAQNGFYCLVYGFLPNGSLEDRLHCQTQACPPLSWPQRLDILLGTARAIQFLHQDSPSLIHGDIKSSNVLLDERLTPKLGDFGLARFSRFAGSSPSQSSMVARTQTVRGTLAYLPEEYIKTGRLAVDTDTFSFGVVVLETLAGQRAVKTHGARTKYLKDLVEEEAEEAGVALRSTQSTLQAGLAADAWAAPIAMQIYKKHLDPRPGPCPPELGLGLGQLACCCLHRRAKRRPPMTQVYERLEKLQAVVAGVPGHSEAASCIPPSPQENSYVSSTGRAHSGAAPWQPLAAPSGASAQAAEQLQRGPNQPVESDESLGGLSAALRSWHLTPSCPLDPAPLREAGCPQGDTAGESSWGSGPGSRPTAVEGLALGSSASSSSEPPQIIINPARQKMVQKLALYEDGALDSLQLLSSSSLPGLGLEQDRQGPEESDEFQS

effect of a mutation on the interaction | Variant
disrupting interaction | T187A;N188A
disrupting interaction | R106A
